{"source": "paper PMC11488661", "about": "(Science immunology, 2024)", "binders": {"B1": {"name": "g28-D78-9_CLK09 (antibody, V domains shown)", "VH": "QVQLVQSGAEVKKPGASVRVSCKASGYTFTGNYIHWVRQAPGQGLEWMGWLNPINGGTNHAQKFQGRVTMTRDTSISTAYMELSRLRSDDTTVYYCARVGGLWSGKGWTFDIWGQGTMVTVSS", "VL": "DIQMTQSPSSLSASVGDRVTITCQASQDISILNWYQQKPGKAPKLLIYGASNLETGVPSRFSGSGSGTDFTFTISSLQPEDIATYYCQQYEFFGGGTKVEIK"}, "B2": {"name": "g28v2-D38-1_CLK19 (antibody, V domains shown)", "VH": "QVQLVQSGAEVKKPGASVKVSCKASGYTFTGHHMHWVRQAPGQGLEWLGWINPRGGGTNYAQKFQGRVTMTRDTSISTAYMDLSRLRSDDTAVYYCTPVLATFRWRFDYWGQGTLVTVSS", "VL": "DIQMTQSPSSLSASVGDRVTFTCQASQDISNFLNWYQQKPGKAPKLLIYDTSNLEAGVPSRFSGGGSGTDFTFTISSLQPEDVATYYCQQYATFGPGTKVDIK"}, "B3": {"name": "g28v2-D38-10_CLK19 (antibody, V domains shown)", "VH": "QVQLVQSGAEVKKPGASVKVSCKASGYTFTGYYIHWVRQAPGQGLEWMGWINPNSGGTNYPQKFQGRVTMTRDTSISTAYMELSRLRSDDTAVYYCALWFGEKWTFDIWGQGTMVTVSS", "VL": "DIQMTQSPSSLSASVGDRVTITCQASQDIGNYLNWYHQRPGKAPKLLIYDASNLETGVPSRFSGSGSGPDSTFTISTLQPEDIGTYYCQQYDTFGPGTKVDIK"}, "B4": {"name": "g28v2-D38-11_CLK19 (antibody, V domains shown)", "VH": "QVQLVQSGAEVKKPGASVKVSCKASGYTFTGYYMHWVRQAPGQGLEWMGWINPNSGGTNYAQIFQDRVTMTRDTSISTAYLELSRLRSDDTAVYYCTRVDGVWSFDIWGQGTMVTVSS", "VL": "B2 VL with D1N, F21I, F32Y, L46I, T51A, A56T, G65S, V83I, A92D"}, "B5": {"name": "g28v2-D38-2_CLK19 (antibody, V domains shown)", "VH": "QVQLVQSGAEVKKPGASVKVSCKASGYTFTDYYLHWVRQAPGQGLEWMGWINPIFGAPNYARKFQGRVTMTRDTSISTAYMELSRLNSDDTAVYYCTHVLATYRWRFDHWGQGTLVTVSS", "VL": "B2 VL with S30G, E55G, G65S, V83I"}, "B6": {"name": "g28v2-D38-3_CLK19 (antibody, V domains shown)", "VH": "B2 VH with H32Y, H33F, L48M, R54H, G55F, G57A, D82E, T91W", "VL": "B2 VL with F21I, T22S, S30N, F32Y, A56T, G65S, V83I, A92D"}, "B7": {"name": "g28v2-D38-4_CLK09 (antibody, V domains shown)", "VH": "QVQLVQSGAEVKKPGASVKVSCKASGYTFTDYFLHWVRQAPGQGLEWMGWINPTGGGVNYAQQFQGRVTLTRDTSISTAYMELTRLRSDDTAVYYCTPVLATFRWRFDYWGQGTLVTVSS", "VL": "DIQMTQSPSSLSASVGDRVTITCQASQDISNYLNWYQQKPGKAPKLLIYDVSNLGTGVPSRFSGSGSGTDFTFTISSLQPEDIATYYCQQYEFFGGGTKVEIK"}, "B8": {"name": "g28v2-D38-5_CLK19 (antibody, V domains shown)", "VH": "QVQLVQSGAEVKKPGASVKVSCKASGYTFIDYYIHWVRQAPGQGLEWMGWINPYHGGTNCAQKFQDRVTMTRDTSISTAYLEMSRLRSDDTAVFFCVIALAGHGWRFDYWGQGTQVTVSS", "VL": "B2 VL with F21I, S30N, F32Y, A56T, G65S, V83I, T93A"}, "B9": {"name": "g28v2-D38-6_CLK19 (antibody, V domains shown)", "VH": "QVQLVQSGAEVREPGASVKVSCKASGYTFTGYYMHWVRQAPGQGLEWMGWINPNRGGTNLARKLQDRVTMTRDTSLSTAYMELRRLRTDDTAVYYCARVGEKWTFDIWGQGTMVTVSS", "VL": "B2 VL with I2L, F21I, S30N, F32Y, K42R, A56T, G65S, V83I, T93A"}, "B10": {"name": "g28v2-D38-7_CLK19 (antibody, V domains shown)", "VH": "QVQLVQSGAEVKKPGASVKVSCKASGYTFTGYYMHWVRQAPGQGPEWMGWLNPNNGGTNFARKYQDRVTMTRDTSLSSAYMELSRLRSDDTAVYYCARVGEKWTFDFWGQGTMVTVSS", "VL": "B2 VL with F21I, S30N, F32Y, G65S, V83I, Y87F, T93A"}, "B11": {"name": "g28v2-D38-8_CLK19 (antibody, V domains shown)", "VH": "QVQLVQSGAEVKKPGASVKVSCKASGYSFSGYYMHWVRQAPGQGLEWMGWINPNHGGTNYAQKFQDRVTMTRDTSISTAYMELSRLRSDDTAVYFCARVDESWFGKKWTFDIWGQGTMVTVSS", "VL": "B7 VL with S30G, V51T, G55E, T72S, S76A, E92D, F93I, G96P, E101D"}, "B12": {"name": "g28v2-D38-9_CLK19 (antibody, V domains shown)", "VH": "B3 VH with G31V, I34M, W104K", "VL": "B3 VL with H37Q, R39K, A51T, S65G, S71F"}, "B13": {"name": "g28v2-D46-1_CLK19 (antibody, V domains shown)", "VH": "QVQLVQSGAEVKKPGAAVKVSCKASGYTFTGYYIHWVRQAPGQGLEWMGWVNPKTGATNYAQKFQGRVTMTRDTSISTTYMELRRLRSDETAVYFCATVMADFRWPFDYWGQGTLVTVSS", "VL": "B7 VL with S30N, V51T, T56I, A84G, E92D, F93T, G96P, E101D"}, "B14": {"name": "g28v2-D46-10_CLK19 (antibody, V domains shown)", "VH": "QVQLVQSGAEVKRPGASVRVSCKASGYTFTGYYMHWVRQAPGQGLEWMGWINPNRGGVNYAHKFQGRVTMTRDTSISTAYMDLSRLRSDDTAVFYCTTALAGHGWRFDYWGQGTLVTVSS", "VL": "B7 VL with D1N, I29T, V51A, G55E, S77G, F93T, G96P, E101D"}, "B15": {"name": "g28v2-D46-11_CLK19 (antibody, V domains shown)", "VH": "B14 VH with R13K, G31D, N54H, R55S, D82E, F94Y", "VL": "B7 VL with I29T, Q38L, V51A, G55E, S77G, F93T, G96P, E101D"}, "B16": {"name": "g28v2-D46-12_CLK19 (antibody, V domains shown)", "VH": "QVQLVQSGAEVKKPGASVKVSCKASGYTFTGYFMHWVRQAPGQGLEWMGWINPNTGGVNYSQKFQGRVTMTRDTSITTAYMELSSLRSDDTAVYFCVTALAGHGWRFDYWGQGTLVTVSS", "VL": "B7 VL with I29T, V51A, G55E, S77G, F93T, G96P, E101D"}, "B17": {"name": "g28v2-D46-13_CLK19 (antibody, V domains shown)", "VH": "QVQLVQSGAEVKKPGASVKVSCKASGYTFTGNYMHWVRQAPGQGLEWMGWINPNSGGTNYAQKFQGRVTMTRDTSISTAHMELRSLRSDDTAVYYCARVEGSWFGKKWTFDIWGQGTMVTVSS", "VL": "B2 VL with D1A, F21I, S30T, F32Y, T51A, G65S, S77G, V83I, Y87S, A92E"}, "B18": {"name": "g28v2-D46-14_CLK19 (antibody, V domains shown)", "VH": "B3 VH with Q1R, S55R, Y80S, W104K", "VL": "DIQLTQSPSSLSASVGGRVTITCQASQDIHNYLNWYQQKPGKAPKILIHDVSNLETGVPSRFSGSRSGTDFTFTISSLLPEDIGTYYCQQYEFFGPGTKVDIK"}, "B19": {"name": "g28v2-D46-2_CLK19 (antibody, V domains shown)", "VH": "QVQLLQSGDEVKKPGASVRVSCKASGYTFTAYFLHWVRQAPGQGLEWMGWINPHSGGTNYAQRFQDRVTMTRDTSISTAYMELSRLRSDDTAVYYCTPVLADYRWRFAYWGQGTLVTVSS", "VL": "B2 VL with F21I, S30N, F32Y, S52T, A56I, G65S, V83F, T93A"}, "B20": {"name": "g28v2-D46-3_CLK19 (antibody, V domains shown)", "VH": "QVQLVQSGAEVKKPGAAVKVSCKASGYTFTDYYMHWVRQAPGQGLEWMGWINPRYGGTNYAQKFQDRVTMTRDTSISTTYMELRRLKSDETAVYYCTTVMADYRWPFDYWGQGTLVTVSS", "VL": "B7 VL with T22S, S30N, Y32C, V51T, A84G, E92D, F93T, G96P, E101D"}, "B21": {"name": "g28v2-D46-4_CLK19 (antibody, V domains shown)", "VH": "B20 VH with M34I, R54T", "VL": "B7 VL with T22S, S30N, V51T, A84G, E92D, F93T, G96P, E101D"}, "B22": {"name": "g28v2-D46-5_CLK19 (antibody, V domains shown)", "VH": "B19 VH with F33Y, I51L, N52Y, H54Q, D66G, Y80F, T97A", "VL": "B2 VL with F21I, S30N, F32Y, S52T, A56I, G65S, V83I, T93A"}, "B23": {"name": "g28v2-D46-6_CLK09 (antibody, V domains shown)", "VH": "B10 VH with G31D, T58R, Y64F, M70V, S78T, F107I", "VL": "B7 VL with D17G, G55E"}, "B24": {"name": "g28v2-D46-7_CLK09 (antibody, V domains shown)", "VH": "B2 VH with H32Y, L45P, L48M, R54N, D82E, Y94F, T97A, T102D, F103Y, R104G", "VL": "B7 VL with D17G, N31S, V51A, G55E, T56A, T72A"}, "B25": {"name": "g28v2-D46-8_CLK09 (antibody, V domains shown)", "VH": "B14 VH with R13K, G31D, R55N, V58I, D82E, F94Y", "VL": "B7 VL with D17G, D28G, N31T, G55E, I83F"}, "B26": {"name": "g28v2-D46-9_CLK19 (antibody, V domains shown)", "VH": "B14 VH with R13K, R55N, D82E, F94Y", "VL": "B2 VL with S14Y, F21I, F32Y, K39I, T51A, G65S, G66R, T69A, V83I"}, "B27": {"name": "g28v2-D58-1_CLK09 (antibody, V domains shown)", "VH": "QIQLVQSGAEVKKPGASVKVSCKASGYTFTDYFIHWVRQAPGQDLVWMGWINPIYGGTNYARSFQGRVTMTRDTSISTAFLELNRLRSDDTAVYYCATDLADNRWRFDYWGQGTLVTVSS", "VL": "B7 VL with S30T, N31S, Y32F, V51A, G55E"}, "B28": {"name": "g28v2-D58-10_CLK19 (antibody, V domains shown)", "VH": "B2 VH with G31D, H32Y, L48M", "VL": "not shown"}, "B29": {"name": "g28v2-D58-11_CLK09 (antibody, V domains shown)", "VH": "B2 VH with G31D, H32Y, M34I, L48M", "VL": "B7 VL with S30R, V51A, L54F, G55E"}, "B30": {"name": "g28v2-D58-2_CLK09 (antibody, V domains shown)", "VH": "B27 VH with I34L, V46E, I54T, Y55F, S63N, F80Y, D102S", "VL": "B7 VL with I2L, D50G, V51A, G55E, T85I"}}, "note": "Where a chain is given by its changes, count along the chain named."}
{"biological_target": "eOD-GT8 (monomeric ligand) (Human immunodeficiency virus 1, …)", "units": {"Kd": "nM"}}
{"binder": "B1", "Kd": 0.19}
{"binder": "B2", "Kd": 6.29}
{"binder": "B3", "Kd": 0.0433}
{"binder": "B4", "Kd": 0.0422}
{"binder": "B5", "Kd": 3710}
{"binder": "B6", "Kd": 105}
{"binder": "B7", "Kd": 0.177}
{"binder": "B8", "Kd": 4.43}
{"binder": "B9", "Kd": 5.38}
{"binder": "B10", "Kd": 0.0876}
{"binder": "B11", "Kd": 50.8}
{"binder": "B12", "Kd": 0.149}
{"binder": "B13", "Kd": 10.8}
{"binder": "B14", "Kd": 1.35}
{"binder": "B15", "Kd": 0.0455}
{"binder": "B16", "Kd": 0.183}
{"binder": "B17", "Kd": 0.193}
{"binder": "B18", "Kd": 12}
{"binder": "B19", "Kd": 0.344}
{"binder": "B20", "Kd": 0.338}
{"binder": "B21", "Kd": 0.106}
{"binder": "B22", "Kd": 19.7}
{"binder": "B23", "Kd": 0.211}
{"binder": "B24", "Kd": 57.3}
{"binder": "B25", "Kd": 0.303}
{"binder": "B26", "Kd": 0.0475}
{"binder": "B27", "Kd": 20.7}
{"binder": "B28", "Kd": 3.69}
{"binder": "B29", "Kd": 3.65}
{"binder": "B30", "Kd": 1.55}
